The target of assay [1] is AHP1 (Arabidopsis thaliana) (UniProt Q9ZNV9). The note with it: cited from earlier work.
Assay [2] addresses ETR1 (Arabidopsis thaliana) (UniProt P49333). Nature of the assay: MST. The note with it: cited from earlier work.
The target in assay [3] is ETR2 (Arabidopsis thaliana) (UniProt Q0WPQ2). Description: MST. The note with it: cited from earlier work.
In assay [4] the target is recombinant full-length Arabidopsis histidine kinase AHK1 (H10-TEV-AHK1), solubilized in FosCholine-16 (Arabidopsis thaliana) (UniProt Q9SXL4). Description: MST; 40 nM AlexaFluor488-labelled AHK1 titrated with unlabelled AHK1 (12 uM to 0.4 nM); 50 mM Tris, 300 mM NaCl, 0.015% FosCholine-16, glycerol, pH 7.6; 40% MST power, 70% LED power; initial fluorescence evaluated; one-binding-site model; apparent Kd; monomer to dimer.

In assay [5] the target is T1, recombinant full-length Arabidopsis histidine kinase AHK1 (H10-TEV-AHK1), solubilized in FosCholine-16 (Arabidopsis thaliana, UniProt Q9SXL4 1-1207, AlexaFluor488-NHS label on the labelled copy (40 nM) used in MST; the titrated copy is unlabelled).
T1 construct: Arabidopsis histidine kinase 1 (AHK1), Arabidopsis thaliana, full length; cloned into pET16b-H10-TEV with primers from the ATG to the stop codon; a TEV site lies between the tag and AHK1; No step that cleaves the tag is described; also called AHK1 sensor kinase; AHK1 osmosensor; source: E. coli BL21 (DE3) with pRARE, solubilized with 1% FosCholine-16, purified (Ni-NTA)
T1 sequence (looked up): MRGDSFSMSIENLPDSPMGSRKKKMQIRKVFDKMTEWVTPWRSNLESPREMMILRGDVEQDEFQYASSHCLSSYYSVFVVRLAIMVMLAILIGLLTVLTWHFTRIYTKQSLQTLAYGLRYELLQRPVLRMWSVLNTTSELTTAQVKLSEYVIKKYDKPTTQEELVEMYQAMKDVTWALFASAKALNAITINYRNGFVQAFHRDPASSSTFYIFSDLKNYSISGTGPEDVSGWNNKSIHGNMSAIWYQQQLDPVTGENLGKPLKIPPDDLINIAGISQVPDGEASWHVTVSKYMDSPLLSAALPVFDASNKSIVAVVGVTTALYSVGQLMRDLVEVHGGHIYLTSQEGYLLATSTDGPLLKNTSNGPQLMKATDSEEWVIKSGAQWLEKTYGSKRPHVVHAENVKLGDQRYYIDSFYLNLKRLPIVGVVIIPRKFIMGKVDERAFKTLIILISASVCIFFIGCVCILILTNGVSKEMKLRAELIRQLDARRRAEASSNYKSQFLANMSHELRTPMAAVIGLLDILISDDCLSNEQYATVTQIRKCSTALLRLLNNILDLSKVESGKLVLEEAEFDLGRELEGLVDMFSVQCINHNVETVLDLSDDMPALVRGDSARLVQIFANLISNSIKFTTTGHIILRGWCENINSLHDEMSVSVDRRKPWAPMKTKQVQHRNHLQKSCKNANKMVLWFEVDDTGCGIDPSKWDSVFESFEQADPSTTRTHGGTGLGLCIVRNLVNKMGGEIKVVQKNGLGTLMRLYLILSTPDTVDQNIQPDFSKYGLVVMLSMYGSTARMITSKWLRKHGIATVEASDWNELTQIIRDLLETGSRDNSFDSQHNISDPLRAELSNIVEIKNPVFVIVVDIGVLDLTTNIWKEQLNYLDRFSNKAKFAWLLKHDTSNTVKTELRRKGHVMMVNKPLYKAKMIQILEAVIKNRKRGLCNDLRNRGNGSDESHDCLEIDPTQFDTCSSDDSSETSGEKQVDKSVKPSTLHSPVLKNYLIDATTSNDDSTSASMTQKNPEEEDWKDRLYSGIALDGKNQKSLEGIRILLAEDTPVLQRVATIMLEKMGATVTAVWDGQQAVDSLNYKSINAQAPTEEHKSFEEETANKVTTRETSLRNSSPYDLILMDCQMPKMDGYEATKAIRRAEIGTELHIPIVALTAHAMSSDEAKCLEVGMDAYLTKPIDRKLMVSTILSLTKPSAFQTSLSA
Nature of the assay: MST; 40 nM AlexaFluor488-labelled AHK1 titrated with AHP2-GST (12.5 uM to 0.4 nM); HEPES/Tris 50 mM, 300 mM NaCl, FosCholine-16, 5% glycerol, pH 7.6; 40% MST power, 30% LED power; T-Jump evaluated; one-binding-site model; apparent Kd; seven measurements. To be noted: both partners purified.

Kd data for four molecules are collected here from PMC7154865, “High-Level Expression, Purification and Initial Characterization of Recombinant Arabidopsis Histidine Kinase AHK1” (Plants, 2020).

AHP1 (Arabidopsis thaliana), sequence (Q9ZNV9 whole entry): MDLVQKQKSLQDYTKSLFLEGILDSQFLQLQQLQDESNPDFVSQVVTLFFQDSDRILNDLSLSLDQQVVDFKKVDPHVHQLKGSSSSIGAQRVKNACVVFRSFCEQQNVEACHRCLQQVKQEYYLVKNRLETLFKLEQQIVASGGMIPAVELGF

With ETR1 (from UniProt P49333), the Kd in assay [1] is 1500 nM; in assay [2], 326 nM.

In the case of ETR2 (from UniProt Q0WPQ2), in assay [3], the Kd was 96 nM.

With “recombinant full-length Arabidopsis histidine kinase AHK1 (H10-TEV-AHK1), solubilized in FosCholine-16 (from UniProt Q9SXL4 1-1207) (receptor)”, the Kd in assay [4] stood at 208 nM.

B1: GST-fusion protein of Arabidopsis histidine phosphotransfer protein 2 (AHP2) (natural protein, Arabidopsis thaliana, UniProt Q9ZNV8 1-156, looked up)
chain: MDALIAQLQRQFRDYTISLYQQGFLDDQFTELKKLQDDGSPDFVSEVLSLFFEDCVKLISNMARALDTTGTVDFSQVGASVHQLKGSSSSVGAKRVKTLCVSFKECCEAKNYEGCVRCLQQVDIEYKALKTKLQDMFNLEKQIIQAGGIVPQVDIN
notes: Arabidopsis histidine phosphotransfer protein 2 (AHP2), Arabidopsis thaliana; cDNA cloned into pGEX-6P-1; The apparent mass is 44 kDa; also called AHP2-GST; GST-tagged AHP2
As for B1, the Kd in assay [5] came out at 317 ± 62 nM.
